The text below walks through data of patent publication US20240076389A1 (NATIONAL RESEARCH COUNCIL OF CANADA, published 2024).

The target of assay [1] is T1, recombinant cynomolgus AXL extracellular domain (cynomolgus).
T1 construct: range 1-449; also called Cyno AXL; cyno AXL ECD
The experiment in a line: SPR, VHH-Fc captured, AXL ECD flowed, single-concentration kinetics (estimate). On the procedure:
(§1) For VH Hs and VHH-Fcs, binding to human and cynomolgus AXL ECD was assessed using either a Biacore T200 instrument or a Biacore 3000 instrument. Either human AXL ECD or anti-human Fc antibody was immobilized on a research-grade CM5 series S sensor chip (T200, rhAXL ECD) or a C1 sensor chip (3000, anti-human Fc) using amine coupling in acetate buffer. VHH-Fcs were captured on anti-human Fc surfaces. Either monomeric VHHs (for rhAXL ECD surfaces) or human and cyno AXL ECD (for VHH-Fc surfaces) were flowed over the surfaces at different concentration ranges. Running buffers were HBS-EP (3000) and HBS-EP+(T200). Flow rates were 10-40 ul/min. All binding studies were performed at 25° C. Surfaces were regenerated using 10 mM glycine, pH 1.5.

Assay [2] concerns the target T2, recombinant human AXL extracellular domain, C-terminally His8-tagged (rhAXL-ECD) (human, UniProt P30530 26-451).
T2 construct: Made in CHO cells; also called (rh)AXL-ECD His8; human AXL ECD
T2 sequence: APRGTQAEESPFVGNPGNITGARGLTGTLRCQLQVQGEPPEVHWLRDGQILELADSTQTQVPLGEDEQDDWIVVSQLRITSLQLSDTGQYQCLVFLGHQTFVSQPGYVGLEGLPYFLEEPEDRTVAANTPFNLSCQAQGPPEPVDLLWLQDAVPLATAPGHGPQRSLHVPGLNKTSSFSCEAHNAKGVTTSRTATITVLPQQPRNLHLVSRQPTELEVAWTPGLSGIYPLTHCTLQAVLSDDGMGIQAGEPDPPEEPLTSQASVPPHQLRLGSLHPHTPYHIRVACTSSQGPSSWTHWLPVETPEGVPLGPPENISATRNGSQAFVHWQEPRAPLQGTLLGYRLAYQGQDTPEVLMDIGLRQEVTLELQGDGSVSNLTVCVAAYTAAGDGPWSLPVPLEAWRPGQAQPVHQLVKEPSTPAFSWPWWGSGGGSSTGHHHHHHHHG
The description is as above. On the procedure:
as §1

Assay [3] deals with T3, mouse AXL extracellular domain (Sino cat. 51026-M08H) (mouse, UniProt Q00993 19-445).
T3 construct: extracellular domain; Bought protein; also called mouse AXL ECD
T3 sequence (looked up): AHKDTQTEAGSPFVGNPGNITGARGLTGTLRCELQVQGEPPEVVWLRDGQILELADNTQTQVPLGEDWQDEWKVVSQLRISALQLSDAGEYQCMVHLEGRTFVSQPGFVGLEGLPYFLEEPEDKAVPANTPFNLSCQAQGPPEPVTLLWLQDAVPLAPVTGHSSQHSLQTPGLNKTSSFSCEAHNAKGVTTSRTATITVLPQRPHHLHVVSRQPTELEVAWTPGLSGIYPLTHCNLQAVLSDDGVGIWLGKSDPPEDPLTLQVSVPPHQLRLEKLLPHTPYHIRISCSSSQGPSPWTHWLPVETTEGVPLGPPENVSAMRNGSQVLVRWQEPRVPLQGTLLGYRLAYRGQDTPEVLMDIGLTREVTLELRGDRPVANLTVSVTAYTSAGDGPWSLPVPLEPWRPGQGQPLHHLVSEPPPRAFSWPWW
Kind of assay: ELISA on coated mouse AXL ECD (100 ng/well). Here is the method:
ELISA. ELISAs against human, cyno and mouse AXL ECDs were conducted by immobilizing 100 ng of each protein in wells of Nunc MaxiSorp microplates overnight. Human AXL (aa 1-451) and cyno AXL (aa 1-449) were produced recombinantly as described in Example 10. Mouse AXL was purchased from Sino (cat. 51026-M08H). The next day, plates were blocked with 5% (w/v) dried milk in PBS. Murine mAbs (either hybridoma- or recombinantly-produced) or VHH-Fcs were diluted in PBS containing 1% BSA and 0.1% Tween-20 and added to wells for 2 hours at room temperature. Wells were washed 5× with PBS containing 0.1% Tween-20, then HRP-labeled protein A (diluted 1:1000 in PBS containing 1% BSA and 0.1% Tween™-20) was added to wells for 1 hour at room temperature. Wells were washed again 5× with PBS/0.1% Tween-20 and developed using TMB substrate. Absorbance was measured at 450 nm. As a positive control for mouse AXL binding, a commercial anti-mouse AXL mAb (clone 175128, R&D Systems MAB8541, rat IgG2A) was used and detected with donkey […] secondary antibody.

Assay [4] concerns the target T2, recombinant human AXL extracellular …. The experiment in a line: SPR Biacore T200, mAb captured on anti-Fc, AXL ECD flowed (footnote b printed in a row of footnote a). On the procedure:
(§2) Surface plasmon resonance. For murine mAbs, binding to human and cynomolgus AXL ECD was assessed using a Biacore T200 instrument. Briefly, either anti-mouse or anti-human Fc antibody was immobilized on a research-grade CM5 series S sensor chip using amine coupling in acetate buffer. Murine or recombinant chimeric murine-human mAbs (mouse VH/VL; human constant regions) were captured, then recombinant human or cyno AXL ECD was flowed over the surface at different concentration ranges (0.1-500 nM) depending on the antibody. The running buffer was PBS/Tween-20 and the flow rate 100 uL/min. All binding studies were performed at 25° C. Surfaces were regenerated using 10 mM glycine, pH 1.5.

In assay [5] the target is T1, recombinant cynomolgus AXL …. Kind of assay: SPR Biacore T200, mAb captured on anti-Fc, AXL ECD flowed, multi-cycle kinetics. On the procedure: as §2
Assay [6] has as its target T2, recombinant human AXL extracellular …. The assay is described as above. On the procedure: as §2

B1: NRC-sdAb001-Fc (VHH-human IgG1 Fc fusion) (Fc fusion)
chain: QVKLEESGGGLVQAGGSLRLSCTASASISSFDIMGWYRQAPGKQRELVAAITTLDIANYRDSVKGRFTISRDNAKNTVYLQMDSLKPEDTARYHCAAFQSDQNYWGQGTQVTVSS
notes: VHH fused N-terminally to human IgG1 Fc, made in HEK293 cells; also called NRC-sdAb0001-Fc; NRC-sdAb001-hIgG1; not shown: human IgG1 Fc
For the molecule B1, in assay [1], the Kd was 8 nM, the dissociation rate constant (koff) is 0.0072 s⁻¹ and the kon was 920000 M⁻¹ s⁻¹. In assay [2], the equilibrium dissociation constant (Kd) is 6 nM, the koff is 0.0072 s⁻¹ and the kon is 1.3e+06 M⁻¹ s⁻¹.

B2: hFC-F107-10G1 (antibody, human IgG1, kappa, V domains shown)
VH: EVNLVESGGGVVKPGASLKLSCEASGFTFSNYGMSWVRQTSDKRLEWVASISGGGGRTYYLDNVKGRFIISRENAKNTLYLQMSSLKSEDTALFYCARGARASYFAMDYWGQGSSVTVSS
VL: VIVMTQSHKFMSTSVGDRVSITCKASQDVTTAVAWYQQKPGQSPKLLIYWASTRHTGVPDRFTGSGSGTDYSLTISNVQTEDLAFYYCQQHFTTPLTFGAGTKLELKR
notes: Chimeric mAb, human IgG1 / human kappa constant regions; also called mAb F107-10G1
As to B2, the binding result in assay [3] is “no binding”. Also, the results for the koff in assay [4], in assay [5] and in assay [6] were 0.00059 s⁻¹, 0.00023 s⁻¹ and 0.00056 s⁻¹, respectively. Also, the results for the Kd in assay [5] and in assay [6] were 0.2 nM and 0.4 nM, respectively. Moreover, the kon is 1.8e+06 M⁻¹ s⁻¹ in assay [5] and 1.2e+06 M⁻¹ s⁻¹ in assay [6].
